What is called EC50 (read off the curve) is the concentration that produces a half-maximal response. In general, EC50 refers to the midpoint of the concentration-response curve.

Several values for one entry are separate records, joined by “and”; a condition that tells them apart may be missing. Equal values may be shown once. Read-outs that look alike come from different tables or passages of the source.

From US20230365658A1 come the findings set out here.

Experiment [1] addresses COV2-RBD (rpk9) Wuhan-Hu-1 (WT) (SARS-CoV-2).
Experiment [2] deals with COV2-RBD (rpk9) B.1.1.529 (BA.1) (SARS-CoV-2). Put plainly: Gyrolab immunoassay, reference titration, relative binding (%).
Experiment [3] has the same target.
Experiment [4] concerns the target COV2-RBD (rpk9) Wuhan-Hu-1 (WT) (SARS-CoV-2). The source holds these as a separate data set.
Experiment [5] has as its target SARS-CoV-2 spike (S) glycoprotein, Omicron BA.2 (SARS-CoV-2) (UniProt P0DTC2). Put plainly: cell-based or functional assay.
The target of experiment [6] is SARS-CoV-2 spike (S) glycoprotein, Omicron BA.1.1 (SARS-CoV-2) (UniProt P0DTC2). Put plainly: cell-based or functional assay.
Experiment [7] addresses SARS-CoV-2 spike (S) glycoprotein, Omicron BA.1 (SARS-CoV-2) (UniProt P0DTC2). Put plainly: cell-based or functional assay.
For experiment [8], the target named is COV2-RBD (rpk9) B.1.1.529 (BA.1) (SARS-CoV-2). Put plainly: Gyrolab full-curve immunoassay (LLNL Gyros) on RBD.
In experiment [9] the target is COV2-RBD (rpk9) Wuhan-Hu-1 (WT) (SARS-CoV-2). Put plainly: Gyrolab full-curve immunoassay (LLNL Gyros) on RBD.
Experiment [10] deals with COV2-RBD (rpk9) B.1.1.529 (BA.1) (SARS-CoV-2). Put plainly: Gyrolab immunoassay, IgG titrated on Spike-RBD, relative binding (FI).
Experiment [11] concerns the target COV2-RBD (rpk9) Wuhan-Hu-1 (WT) (SARS-CoV-2). The experiment is described as above.
Experiment [12] concerns the target SARS-CoV-2 Spike-RBD, Delta (SARS-CoV-2) (UniProt P0DTC2). Put plainly: Gyrolab immunoassay, reference titration, relative binding (%).
The target of experiment [13] is COV2-RBD (rpk9) B.1.1.529 (BA.1) (SARS-CoV-2). Put plainly: Gyros full-curve immunoassay, mAb titrated on RBD, relative binding (FI).
In experiment [14] the target is COV2-RBD (rpk9) Wuhan-Hu-1 (WT) (SARS-CoV-2). Described as above.
Experiment [15] deals with SARS-CoV-2 Spike-RBD, Delta (SARS-CoV-2) (UniProt P0DTC2). The experiment is described as above.
Experiment [16] addresses SARS-CoV-2 spike (S) glycoprotein, Delta (B.1.617.2) (SARS-CoV-2) (UniProt P0DTC2). Put plainly: cell-based or functional assay.
The target of experiment [17] is SARS-CoV-2 spike (S) glycoprotein, Omicron BA.4 (SARS-CoV-2) (UniProt P0DTC2). Put plainly: cell-based or functional assay.
In experiment [18] the target is SARS-CoV-2 spike (S) glycoprotein, Omicron BA.5.5 (SARS-CoV-2) (UniProt P0DTC2). Put plainly: cell-based or functional assay.

With COV2-2130 (antibody), the EC50 (read off the curve) in [1] is 0.8 µg/mL; in experiment [2], 2 µg/mL. The 50% effective concentration (EC50) is 2.77 µg/mL and 1.75 µg/mL in [3]; 1.72 µg/mL and 0.675 µg/mL in experiment [4].
For the substance S309 (antibody), the pseudovirus neutralization IC50 stood at 0.109 µg/mL in experiment [5], 0.0332 µg/mL in [6] and 0.0632 µg/mL in [7]. For the same substance, the EC50 (read off the curve) in [1] is 2 µg/mL; in [10], 4 µg/mL; in [11], 2 µg/mL; in [2], 6 µg/mL; in experiment [12] it was 2 µg/mL; in [13], 4 µg/mL. Besides, the EC50 (read off the curve) in experiment [14] and in experiment [15] was 2 µg/mL each time. In addition, the values for the AUC(logC) in experiment [8] and in [9] were 53.2 and 60.6, respectively. Besides, the EC50 came to 17.2 µg/mL in experiment [3] and 5.76 µg/mL in experiment [4].
With rDENV-2D22 (antibody), the authentic virus neutralization IC50 (FRNT) in [16], in experiment [6], in [7], in experiment [17] and in experiment [18] was greater than 10 µg/mL in each case. Also, the normalized pseudoneutralization IC50 in experiment [6] and in [17] was greater than 10 µg/mL throughout.
Consider rS2K146 (antibody), for which the normalized pseudoneutralization IC50 in experiment [5] turned out to be 0.00336 µg/mL; in [6], 0.00209 µg/mL; in experiment [7], 0.00438 µg/mL; in experiment [17], 0.036 µg/mL.
